Experimental data taken from doi:10.1101/2023.05.09.540036.
*1 amine or outer side, *2 acyl side, *3 side chain or, on linkers, in order; H or OH if unused. Bridges are numbered along the chain shown (N, C = ends). Primed or numbered codes have the meaning given here. The star is where a group is joined. PEG3′ = three-unit polyethylene glycol linker; NOTA = O=C(O)CN1CCN(CC(=O)O)CCN(CC(=O)*)CC1; TBMB = c1c(C[*:1])cc(C[*:3])cc1C[*:2]

Biological target: T1, His-Tagged human CD38 recombinant protein (human) (UniProt P28907)
T1 sequence (P28907 whole entry, looked up): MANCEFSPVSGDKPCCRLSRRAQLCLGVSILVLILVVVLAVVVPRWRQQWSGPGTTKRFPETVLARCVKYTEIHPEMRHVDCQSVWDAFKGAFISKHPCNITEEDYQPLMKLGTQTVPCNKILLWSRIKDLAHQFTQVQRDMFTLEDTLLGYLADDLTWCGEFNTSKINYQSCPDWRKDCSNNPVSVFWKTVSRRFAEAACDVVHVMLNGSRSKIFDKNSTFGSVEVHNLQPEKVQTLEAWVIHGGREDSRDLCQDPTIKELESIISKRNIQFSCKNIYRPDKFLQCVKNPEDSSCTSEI
Assay: SPR

Kd: 19.1 nM
B1: AJ206 (NOTA-conjugated bicyclic peptide) (peptide)
peptide: {NOTA-PEG3′}-ACVPCADFPIWYC-NH2
modifications: linker 2-5-13 via TBMB
